Measured values taken from the RNAGym collection of RNA variant scans (doi:10.1101/gr.219683.116).

B1: mRNA-splicing (parent)
chain: AGUUGCUGCUGGGAGCUCCAGCACAGUGAAAUGGACAGAAGGGCAGAGCAA

Variants of: B1
Experiment: exon inclusion enrichment index; higher = more inclusion; WT1 exon 5 minigene, HEK293

In order of rising “exon inclusion enrichment index” value:
1. AGUUCUUACAGGGAGCUCCAGCACAGUGAAAUGGACAGAAGGGCAGAGCAA  0.0597
2. AGUUCUUCUUAGGAGCUCCAGCACAGUGAAAUGGACAGAAGGGCAGAGCAA  0.125
3. AGUUCUUCUCGGGAGCUCCAGCUUAGUGAAAUGGACAGAAGGGCAGAGCAA  0.198
4. AGUUCUUCUCGGGAGCUCCAGCACAGUGAGCUGGACAGAAGGGCAGAGCAA  0.276
5. AGUUCUUCUCGGGAGCUCCAGCACAGUGAGGUGGACAGAAGGGCAGAGCAA  0.469
6. AGUUCUUCUCGGGAGCUCCCCCACAGUGAAAUGGACAGAAGGGCAGAGCAA  0.524
7. AGUUCUUCUCGGGGUCUCCAGCACAGUGAAAUGGACAGAAGGGCAGAGCAA  0.546
8. AGUUCUUCUCGGGAGCUCCCACACAGUGAAAUGGACAGAAGGGCAGAGCAA  0.599
9. AGUUCUUCUCGGGAGCUCCAGCACAGUGAGUUGGACAGAAGGGCAGAGCAA  0.63
10. AGUUCUUCUCGGGAGCUCCAGCACAGUGUAAUGGACAGAAGGGCAGAGCAA  0.63
11. AGUUCUUCUCGGGUGCUCCAGCACAGUGAAAUGGACAGAAGGGCAGAGCAA  0.661
12. AGUUCUUCUCGGGAGCUCCAGCGUAGUGAAAUGGACAGAAGGGCAGAGCAA  0.696
13. AGUUCUUCUCGGGAGCUCCAGCUAAGUGAAAUGGACAGAAGGGCAGAGCAA  0.79
14. AGUUCUUCUCGGGGCCUCCAGCACAGUGAAAUGGACAGAAGGGCAGAGCAA  0.826
15. AGUUCUUCUUUGGAGCUCCAGCACAGUGAAAUGGACAGAAGGGCAGAGCAA  0.905
16. AGUUCUUCUCGGGAGCUCCCUCACAGUGAAAUGGACAGAAGGGCAGAGCAA  0.926
17. AGUUCUUAUCGGGAGCUCCAGCACAGUGAAAUGGACAGAAGGGCAGAGCAA  0.941
18. AGUUCUUGUCGGGAGCUCCAGCACAGUGAAAUGGACAGAAGGGCAGAGCAA  1.13
19. AGUUCUUCUUGGGAGCUCCAGCACAGUGAAAUGGACAGAAGGGCAGAGCAA  1.16
20. AGUUCUUCUCGGGGACUCCAGCACAGUGAAAUGGACAGAAGGGCAGAGCAA  1.17
21. AGUUCUUCUCGGGAGCUCCAGCACAGUGCUAUGGACAGAAGGGCAGAGCAA  1.18
22. AGUUCUUACCGGGAGCUCCAGCACAGUGAAAUGGACAGAAGGGCAGAGCAA  1.18
23. AGUUCUUCUCGGGGGCUCCAGCACAGUGAAAUGGACAGAAGGGCAGAGCAA  1.2
24. AGUUCUUCUCGGGCGCUCCAGCACAGUGAAAUGGACAGAAGGGCAGAGCAA  1.3
25. AGUUCUUCUCGGGAGCUCCCGCACAGUGAAAUGGACAGAAGGGCAGAGCAA  1.41
26. AGUUCGGCCCGGGAGCUCCAGCACAGUGAAAUGGACAGAAGGGCAGAGCAA  1.57
27. AGUUCUUCAUGGGAGCUCCAGCACAGUGAAAUGGACAGAAGGGCAGAGCAA  1.7
28. AGUUCUUCUCGGGAGCUCCGCCACAGUGAAAUGGACAGAAGGGCAGAGCAA  1.71
29. AGUUCUUCUCGGGAGCUCCAGCACAGUGCAAUGGACAGAAGGGCAGAGCAA  1.75
30. AGUUCUUCUCGGGAGCUCCGUCACAGUGAAAUGGACAGAAGGGCAGAGCAA  2.01
31. AGUUCUUCUUCGGAGCUCCAGCACAGUGAAAUGGACAGAAGGGCAGAGCAA  2.09
32. AGUUCUUCUCGGGAGCUCCAGCACAGUGACUUGGACAGAAGGGCAGAGCAA  2.1
33. AGUUCUUCUCGGGAGCUCCUGCACAGUGAAAUGGACAGAAGGGCAGAGCAA  2.17
34. AGUUCUUCUCGGGAGCUCCAGCUGAGUGAAAUGGACAGAAGGGCAGAGCAA  2.38
35. AGUUCUUCUCGGGAGCUCCGACACAGUGAAAUGGACAGAAGGGCAGAGCAA  2.38
36. AGUUCUUCUCGGGAGCUCCAGCACAGUGCCAUGGACAGAAGGGCAGAGCAA  2.52
37. AGUUCUUCUCGGGAGCUCCAGCACAGUGGAAUGGACAGAAGGGCAGAGCAA  2.54
38. AGUUCUUCUCGGGAGCUCCAGCACUGUGAAAUGGACAGAAGGGCAGAGCAA  2.6
39. AGUUCUUCUCGGGAGCUCCGGCACAGUGAAAUGGACAGAAGGGCAGAGCAA  2.69
40. AGUUCUUCUCGGGAGCUCCAGCACGUUGAAAUGGACAGAAGGGCAGAGCAA  2.71
41. AGUUCUUCUCGGGAGCUCCAGCACAGUGACCUGGACAGAAGGGCAGAGCAA  2.9
42. AGUUCUUCUCGGGAGCUCCAGCACAGUGACGUGGACAGAAGGGCAGAGCAA  3.01
43. AGUUCUUCUCGGGAGCUCCAGCACAGUGCGAUGGACAGAAGGGCAGAGCAA  3.25
44. AGUUCUUCUCGGGAGCUCCAGCACCAUGAAAUGGACAGAAGGGCAGAGCAA  3.25
45. AGUUCUUCUCGGGAGCUCCAGCGAAGUGAAAUGGACAGAAGGGCAGAGCAA  3.38
46. AGUUCUUCUCGGGAGCUCCAGCACCGUGAAAUGGACAGAAGGGCAGAGCAA  3.42
47. AGUUCUUCGUGGGAGCUCCAGCACAGUGAAAUGGACAGAAGGGCAGAGCAA  3.5
48. AGUUCUUCUCGGGAGCUCCAGCGGAGUGAAAUGGACAGAAGGGCAGAGCAA  3.51
49. AGUUCUUCUCGGGAGCUCCAGCACGCUGAAAUGGACAGAAGGGCAGAGCAA  3.56
50. AGUUCUUCUCGGGAGCUCCAGCACGGUGAAAUGGACAGAAGGGCAGAGCAA  3.66
51. AGUUCUUCUCGGGAGCUCCAGCACGAUGAAAUGGACAGAAGGGCAGAGCAA  4.14
